From US20230303681A1 (published 2023)
Numbering of substitutions follows the chain as printed.

B1: anti-TMEM106B antibody TM-6 (antibody, V domains shown)
VH: QVQLQQSGAELVKPGASVKLSCKASGYTFTEYTIHWVKQRSGQGLEWIGWFYPGSTYIDYNEKFKDKATLTADKSSSTVYLELSRLTSEDSAVYFCARHEEDYSNWFPFWGQGTLVTVSA
VL: DIQMSQSSSYLSVSLGGRVTITCKASDHINNWLAWYQQKPGNAPRLLISGATSLETGVPSRFSGSGSGKDYTLSITSLQTEDVATYYCQQYWSSPYTFGGGTKLEIK
notes: mouse IgG from hybridoma
B2: anti-TMEM106B antibody TM-49 (antibody, V domains shown)
VH: QVQLQQPGAELVRPGSSVKLSCKASGYTFTRFWMHWVKQRPIQGLEWIGNIDPSDSQTHYNQKFKDKATLTVDKSSSTAYMQLSSLTSEDSAVYYCARLITVDYAMDYWGQGTSVTVSS
VL: QIVLTQSPAIMSASPGEKVTISCSASSSVSYMYWYQQKPGSSPKPWIHRTSNLASGVPVRFSGSGSGTSYSLTISSMEAEDAATYYCQQYHSYPPTFGAGTKLELK
notes: mouse IgG from hybridoma
B3: anti-TMEM106B antibody TM-14 (antibody, V domains shown)
VH: QVQLQQSGPELVRPGTSVKVSCKASGYAFTNYLIEWVKQRPGQGLEWIGVINPGGGNTDYSEKFKDKATLTADKSSNTAYIQLSSLTSEDSAVYFCARSPYSSYVGYAVDYWGQGTSVTVSS
VL: DIQMTQSPSSLSASLGERVSLTCRASQDIGSNLNWLQQEPDGTIKRLIYATSSLDSGVPKRFSGSRSGSDYSLTISSLESEDFVVYYCLQYASSPRTFGGGTRLEIK
notes: mouse IgG from hybridoma
B4: anti-TMEM106B antibody TM-50 (antibody, V domains shown)
VH: QVQLKESGPVLVAPSQSLSITCTVSGFSLTNYGVHWVRQPPGKGLEWLGVIWAGGNTNYNSALMSRLSISKDNSKSQVFLKMNSLQTDDTAMYYCAKEAKLLRSYAMDYWGQGTLVTVSA
VL: DVQMTQTTSSLSASLGDRVTISCRASQDINNYLYWYQQKPDGTVKLLIYYTSMLHSGVPSRFSGSGSGTDYSLTISNLEQEDIATYFCQQGSTLMYTFGGGTKLEIK
notes: mouse IgG from hybridoma
B5: anti-TMEM106B antibody TM-8 (antibody, V domains shown)
VH: QIQLVQSGPELKKPGETVKISCKASGYTFTDYPMHWVKQAPGKGFKWMGVIYTDTGEPKYAEVFKGRFAFSLETSASTAYLQINNLKNEDTATYFCVRRLAYWGQGTLVTVSA
VL: DIKMTQSPSSMYASLGERVTITCKASQDINSYLSWFQQKPGKSPKTLIFRANRLVDGVPSRFSGSGSGQDYSLTISSLEYEDMGIYYCLQYDEFPLTFGAGTKLEMK
notes: mouse IgG from hybridoma
B6: anti-TMEM106B antibody TM-52 (antibody, V domains shown)
VH: QVQLQQPGAELVKPGASVKLSCKASGYTFTNYWMHWVKQRPGQGLDWIGNIDPSDSETHYNQKFKDKATLTVDKVSSTAYMQLSSLTSEDSAVYYCARRGYYGRSPFAYWGQGTLVTVSA
VL: ENVLTQSPAIMSASPGEKVTMTCSASSSVSYMHWYQQKSNTSPKLWIYDTSKLASGVPGRFSGSGSGNSYSLTISSAEAEDVATYYCFQGSGYPLTFGAGTKLELK
notes: mouse IgG from hybridoma
B7: anti-TMEM106B antibody TM-15 (antibody, V domains shown)
VH: QVQLQQPGAEFVRPGASVKLSCKASGYTFTNYWITWVKQRPGHGLEWIGDIYPGSGNSNYNESFKRKATLTVDTSSSTAYMHLSSQTSEDSAVYFCARKAYGGFPYWGQGTLVTVSA
VL: DIQMTQSPASLSVSVGETVTITCRVSENIYNNLAWYQQKQEKSPQLLVFAATNLADGVPSRFSGSGSGTQFSLKINSLQSEDFGTYYCQHFWDTPFTFGSGTKLEIK
notes: mouse IgG from hybridoma
B8: anti-TMEM106B antibody TM-33 (antibody, V domains shown)
VH: EFQLQQSGPELVKPGASVKISCKASGYSFTDYNMNWVKQSNGKSLEWIGVINPNYGTTSYNQKFKGKATLTVDQSSSTAYMQLNSLTSEDSAVYYCASSYWGQGTLVTVSA
VL: DIVMTQSQKFMSTTVGDRVSITCKASQNVGTAVAWYQQKPGQSPKLLIYSASNRYTGVPDRFTGSGSGTDFTLTISNMQSEDLADYFCQQYSSYPYTFGGGTKLEIK
notes: mouse IgG from hybridoma
B9: anti-TMEM106B antibody TM-31 (antibody, V domains shown)
VH: QVQLQQSGAELAKPGASVKVSCKASGYTFISYWMNWVKQRPGQGLEWIGYINPTSGYTRYNQKFKDKATLTADKSSSTAYMQLSSLTYEDSAVYYCARSPPTVVLIGYFDYWGQGTTLTVSS
VL: B5 VL with I21F, F49Y, A51G, R53G, L96F, G99A, A100S, M106I
notes: mouse IgG from hybridoma

Target: T1, human TMEM106B (human, UniProt Q9NUM4 2-274)
T1 construct: Full-length, on transiently transfected HEK293 cells, or natively expressed on HeLa, U251 and A549 cells; also called huTMEM106B; huTMEM
Test: FACS A549
Description: (§1) All cells were cultured in either T75 or T150 flasks. […] The enzyme was quenched by addition of fresh media, and the cells were then distributed into 96-well plates for FACS analysis.
(§2) FACS analysis was performed as follows. Each cell type was aliquoted in 96-well round bottom plates (2x10^5 cells per well), washed once with FACS buffer (PBS + 2% FBS + 1 mM EDTA), and incubated with 50 µL of hybridoma supernatant or purified antibody (10 µg/ml in FACS buffer) on ice for 1 hour. […] Following this secondary incubation, the cells were again washed 2x with ice-cold FACS buffer and resuspended in a final volume of 50 µL of FACS buffer + 0.25 µl/well propidium iodide (Fisher Scientific # BDB556463). Analysis was performed on a FACSCanto system (BD Biosciences) or iQue (Intellicyt), with sort gates drawn to exclude dead (i.e., propidium iodide positive) cells.
(§3) Data is presented as mean fluorescence intensity (MFI).

| MFI | Binder |
| --- | --- |
| 1100 | B1 |
| 924 | B2 |
| 896 | B3 |
| 580 | B4 |
| 554 | B5 |
| 987 | B6 |
| 938 | B7 |
| 298 | B8 |

Target: T1, human TMEM106B
Test: FACS HeLa;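 note: flow cytometry of cells incubated with hybridoma supernatant or purified antibody at 10 µg/ml for 1 h on ice, propidium iodide–positive dead cells gated out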
Description: as §1, §2, §3

| MFI | Binder |
| --- | --- |
| 520 | B1 |
| 187 | B2 |
| 307 | B3 |
| 159 | B4 |
| 799 | B9 |
| 568 | B5 |
| 227 | B6 |
| 660 | B7 |
| 148 | B8 |

Target: T1, human TMEM106B
Test: FACS U251;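 note: flow cytometry of cells exposed to antibody (purified at 10 µg/mL, or hybridoma supernatant) for 1 h on ice, with propidium iodide-positive dead cells gated out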

| MFI | Binder |
| --- | --- |
| 304 | B1 |
| 434 | B2 |
| 270 | B3 |
| 260 | B4 |
| 352 | B9 |
| 304 | B5 |
| 341 | B6 |
| 382 | B7 |
| 202 | B8 |

Target: T2, mouse TMEM106B (mouse, UniProt Q80X71 2-275)
T2 construct: on transiently transfected HEK293 cells, or natively expressed on mouse Neuro2a cells; also called moTMEM106B; murine TMEM106B
Test: FACS Neuro2a;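 note: flow cytometry of cells stained with antibody or hybridoma supernatant (purified antibody at 10 µg/ml) for 1 h on ice, propidium iodide–positive dead cells gated out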

| MFI | Binder |
| --- | --- |
| 371 | B1 |
| 291 | B2 |
| 300 | B3 |
| 257 | B4 |
| 325 | B9 |
| 370 | B5 |
| 210 | B6 |
| 470 | B7 |
| 233 | B8 |

Target: T3, GST (Pierce) (UniProt P08515 1-218 = GST, limits assumed)
T3 construct: control for the GST part of the fusion protein; also called GST protein; Glutathione-S-transferase
Test: ELISA, coated GST;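 note: ELISA on plates coated with GST alone at 1-10 µg/ml, antibodies applied at 100-1000x dilution, bound antibody detected by peroxidase substrate colour after acid stop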

| binding result | Binder |
| --- | --- |
| no binding | B1 |
| no binding | B3 |
| no binding | B9 |
| no binding | B5 |
| no binding | B7 |
| no binding | B8 |

Target: T1, human TMEM106B
Test: FACS A549, 1 ug/ml
Description: Purified anti-TMEM106B antibodies were evaluated for their binding affinity to various TMEM106B-expressing cell lines including HEK293 transiently transfected with human/cyno/mouse TMEM106B, as well as HeLa cells and A549 cells. Antibodies tested for this experiment were mouse IgGs purified from hybridoma supernatant. Affinity binding to cells was determined as follows. Briefly, 1x10^5 cells were aliquoted per well in 96-well round bottom plates and incubated with 50 µL of purified anti-TMEM106B antibody at various concentrations (10x dilutions starting at 10 µg/ml) in FACS buffer (PBS + 2% FBS + 1 mM EDTA). […] Sorting was performed on a iQue (Intellicyt), with sort gates drawn to exclude dead (propidium iodide +) cells. Binding data was analyzed using median fluorescent intensity (MFI) and graphed in Prism. Values presented are MFI.

| MFI | Binder |
| --- | --- |
| 418 | B1 |
| 473 | B2 |
| 409 | B3 |
| 381 | B4 |
| 403 | B9 |
| 393 | B5 |
| 401 | B6 |
| 650 | B7 |
| 366 | B8 |

Target: T1, human TMEM106B
Test: FACS A549, 10 ug/ml

| MFI | Binder |
| --- | --- |
| 544 | B1 |
| 613 | B2 |
| 438 | B3 |
| 445 | B4 |
| 527 | B9 |
| 492 | B5 |
| 443 | B6 |
| 1980 | B7 |
| 514 | B8 |

Target: T3, GST (Pierce)
Test: array SPR, Ab immobilised

| binding result | Binder |
| --- | --- |
| no binding | B2 |
| no binding | B4 |
| no binding | B6 |

Target: T1, human TMEM106B
Test: FACS, HEK293 transfectants;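 for fold over negative controls: hybridoma supernatants incubated 30 min on ice with human TMEM106B-expressing HEK293 cells, binding read as anti-mouse-APC median fluorescence on live cells, relative to secondary-antibody-only wells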;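 for fold-change over parental HEK293: flow cytometry binding of hybridoma supernatants to HEK293 cells transiently expressing human, cyno or mouse TMEM106B, read as anti-mouse-APC median fluorescence, live cells only, 30 min on ice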
Description: Initial screening of the anti-TMEM106B hybridomas was performed as follows.
For screening of the hybridoma cell culture supernatants, humanTMEM106B-transfected HEK293 cells were aliquoted in 96-well round bottom plates (2x10^5 cells per well) and incubated with 50 µL of hybridoma cell culture supernatant on ice for 30 minutes. […] Cell sorting was performed on a FACS Canto system (BD Biosciences) or iQue (Intellicyt), with sort gates drawn to exclude dead (i.e., propidium iodide-positive) cells. Median fluorescence intensity (MFI) of anti-mouse-APC MFI on TMEM106B+ HEK293 cells was calculated for each clone, and those displaying a signal of at least 2-fold over background compared to a secondary-antibody only well were taken forward for further analysis and characterization.

| fold over negative controls [fold] | Binder |
| --- | --- |
| > 2 | B1 |
| > 2 | B2 |
| > 2 | B3 |
| > 2 | B4 |
| > 2 | B9 |
| > 2 | B5 |
| > 2 | B6 |
| > 2 | B7 |
| > 2 | B8 |

Target: T1, human TMEM106B
Test: FACS HEK+huTMEM, 10 ug/ml;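 note: purified mouse IgG antibodies at 10 µg/ml bound to HEK293 cells transiently expressing human TMEM106B, measured by flow cytometry as median fluorescence intensity of propidium iodide negative live cells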

| MFI | Binder |
| --- | --- |
| 581 | B1 |
| 16500 | B2 |
| 1190 | B3 |
| 396 | B4 |
| 6060 | B9 |
| 465 | B5 |
| 7020 | B6 |
| 63100 | B7 |
| 12100 | B8 |

Target: T1, human TMEM106B
Test: FACS, HEK293 transfectants;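 for fold over negative controls: hybridoma supernatants incubated 30 min on ice with human TMEM106B-expressing HEK293 cells, binding read as anti-mouse-APC median fluorescence on live cells, relative to secondary-antibody-only wells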;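 for fold-change over parental HEK293: flow cytometry binding of hybridoma supernatants to HEK293 cells transiently expressing human, cyno or mouse TMEM106B, read as anti-mouse-APC median fluorescence, live cells only, 30 min on ice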
Remark: another data set of the same source
Description: (§4) For screening of the hybridoma cell culture supernatants, humanTMEM106B-transfected HEK293 cells were aliquoted in 96-well round bottom plates (2x10^5 cells per well) and incubated with 50 µL of hybridoma cell culture supernatant on ice for 30 minutes. […] Median fluorescence intensity (MFI) of anti-mouse-APC MFI on TMEM106B+ HEK293 cells was calculated for each clone, and those displaying a signal of at least 2-fold over background compared to a secondary-antibody only well were taken forward for further analysis and characterization.

| fold-change over parental HEK293 [fold] | Binder |
| --- | --- |
| 4.13 | B1 |
| 15.6 | B2 |
| 3.96 | B3 |
| 16 | B4 |
| 22.1 | B9 |
| 2.1 | B5 |
| 17.3 | B6 |
| 31.4 | B7 |
| 10.2 | B8 |

Target: T4, cynomolgus (cyno) TMEM106B (cynomolgus, UniProt Q9NUM4 2-274 (human entry))
T4 construct: on transiently transfected HEK293 cells
Test: FACS, HEK293 transfectants;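 for fold over negative controls: hybridoma supernatants incubated 30 min on ice with human TMEM106B-expressing HEK293 cells, binding read as anti-mouse-APC median fluorescence on live cells, relative to secondary-antibody-only wells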;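 for fold-change over parental HEK293: flow cytometry binding of hybridoma supernatants to HEK293 cells transiently expressing human, cyno or mouse TMEM106B, read as anti-mouse-APC median fluorescence, live cells only, 30 min on ice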
Description: as §4

| fold-change over parental HEK293 [fold] | Binder |
| --- | --- |
| 1.25 | B1 |
| 13.8 | B2 |
| 4.56 | B3 |
| 17.8 | B4 |
| 64.7 | B9 |
| 2.62 | B5 |
| 22.6 | B6 |
| 57.7 | B7 |
| 7.74 | B8 |

Target: T2, mouse TMEM106B
Test: FACS, HEK293 transfectants;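 for fold over negative controls: hybridoma supernatants incubated 30 min on ice with human TMEM106B-expressing HEK293 cells, binding read as anti-mouse-APC median fluorescence on live cells, relative to secondary-antibody-only wells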;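 for fold-change over parental HEK293: flow cytometry binding of hybridoma supernatants to HEK293 cells transiently expressing human, cyno or mouse TMEM106B, read as anti-mouse-APC median fluorescence, live cells only, 30 min on ice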
Description: as §4

| fold-change over parental HEK293 [fold] | Binder |
| --- | --- |
| 1.25 | B1 |
| 21.3 | B2 |
| 1.77 | B3 |
| 17.5 | B4 |
| 68.7 | B9 |
| 1.63 | B5 |
| 0.67 | B6 |
| 46.8 | B7 |
| 45.8 | B8 |

Target: T1, human TMEM106B
Test: FACS HEK+huTMEM, 0.1 ug/ml;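 note: flow cytometry binding of purified mouse IgG antibodies to HEK293 cells transiently expressing TMEM106B, read as median fluorescence intensity with propidium iodide positive dead cells gated out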

| MFI | Binder |
| --- | --- |
| 327 | B1 |
| 3030 | B2 |
| 364 | B3 |
| 305 | B4 |
| 1390 | B9 |
| 305 | B5 |
| 1940 | B6 |
| 2060 | B7 |
| 1750 | B8 |

Target: T1, human TMEM106B
Test: FACS HEK+huTMEM, 1.0 ug/ml

| MFI | Binder |
| --- | --- |
| 393 | B1 |
| 15700 | B2 |
| 680 | B3 |
| 314 | B4 |
| 3680 | B9 |
| 317 | B5 |
| 8200 | B6 |
| 14300 | B7 |
| 5630 | B8 |

Target: T1, human TMEM106B
Test: FACS HEK+huTMEM, 0.01 ug/ml

| MFI | Binder |
| --- | --- |
| 294 | B1 |
| 756 | B2 |
| 314 | B3 |
| 294 | B4 |
| 596 | B9 |
| 301 | B5 |
| 451 | B6 |
| 584 | B7 |
| 651 | B8 |

Target: T5, GST-fusion human TMEM106B truncated (human)
T5 construct: also called GST-TMEM106B-truncated protein; GST-TMEM106B (truncated)
Test: epitope binning, array SPR (Community 3, Bin 5)
Description: Epitope binning of the anti-TMEM106B antibodies was performed by Carterra (Salt Lake City, Nevada, USA) using a pre-mix epitope binning approach.

| binding result | Binder |
| --- | --- |
| no binding (tested: 55 nM antigen) | B1 |
| no binding (tested: 55 nM antigen) | B2 |
| no binding (tested: 55 nM antigen) | B3 |
| no binding (tested: 55 nM antigen) | B4 |
| no binding (tested: 55 nM antigen) | B9 |
| no binding (tested: 55 nM antigen) | B5 |
| no binding (tested: 55 nM antigen) | B6 |
| no binding (tested: 55 nM antigen) | B7 |
| no binding (tested: 55 nM antigen) | B8 |
